Test results: patent US20200325239A1, “Modulation of Aminopeptidase N/CD13 and Rheumatoid Arthritis” (THE REGENTS OF THE UNIVERSITY OF MICHIGAN, priority 2016, published 2020)

Experiments:
[1] = test system: C57Bl/6 mice; assay: Matrigel plug angiogenesis assay in vivo (hemoglobin); set-up: species or system mouse; conditions: subcutaneous Matrigel 500 μl, plugs harvested after 7 days
Experimental: FIG. 13. To test the effect of CD13 in angiogenesis in vivo, Matrigel plug assays were performed using C57Bl/6 mice. Each mouse was given a subcutaneous injection of sterile GFR Matrigel (500 μl/injection) containing either CD13 or PBS, a negative control. Matrigel plugs were harvested after 7 days. Hemoglobin (Hb) was determined. […] Results are represented as the mean+SEM and *p<0.05 was considered significant. n=number of mice per group.
This assay is performed as described previously (56-58). RA SFs sham- or CD13-depleted (50 μl in 500 μl of Matrigel) are injected subcutaneously in C57Bl/6 mice. After 7 days, the mice are euthanized and the Matrigel plugs are removed, weighed, and processed for hemoglobin (Hb) measurement or immunofluorescence. Hemoglobin (Hb) concentration is determined either by the Drabkin method using a Drabkin's reagent kit (Sigma) or with the 3,3,5,5-tetramethylbenzidine substrate system (Sigma) (56, 61, 62). Hb values are normalized to plug weight.

[2] = test system: RA FLS; assay: FLS growth assay (Essen IncuCyte, percent confluence); assay type: cell-based, human; conditions: proliferation and migration
Experimental: FIG. 5. […] FLS were seeded on 96-well plates overnight. An Essen Incucyte system was used for both growth (A) and migration (B) assays. Growth was calculated as the difference in percent confluence from time 0. Migration was measured in a scratch-wound assay using relative wound density. All data are expressed as a ratio to untreated FLS of the same cell line. mean±SEM n≥4 (*p≤0.05).
RA FLS were seeded on Essen Image Lock 96-well plates (Essen Bioscience, Ann Arbor, Mich.) overnight at either 3,000 cells/well for growth or 30,000 cells/well for migration. For growth, the 20% FBS CMRL media was removed and cells were washed 1× with PBS. 100 μl of medium alone (control) or medium containing anti-CD3 (25 or 50 ng/ml, OKT3, used as a non-reactive isotype control antibody in this experiment), anti-CD13 1D7 or WM15 (Biolegend, San Diego, Calif.) (25 or 50 ng/ml), or CD13 chemical inhibitors actinonin (Sigma-Aldrich, St. Louis, Mo.) or bestatin (Sigma-Aldrich, St. Louis, Mo.) (10 μM and 50 μM, respectively) was added to the wells. Images and confluence data were collected using an Essen IncuCyte (Essen Bioscience, Ann Arbor, Mich.). For the scratch-wound migration assay, wounds were made via the Essen scratch-wound tool in the seeded 96-well plate. Plates were then washed 2× with PBS and medium was added similar to the growth plates. Data were collected and the confluence or relative wound density calculated by the Essen IncuCyte.

[3] = test system: Human dermal microvascular endothelial cell (HMVEC); assay: HMVEC chemotaxis in modified Boyden chamber; assay type: cell-based; conditions: p<0.05 vs PBS; dose-dependent
Experimental: FIG. 10. Human dermal microvascular endothelial cell (HMVEC) chemotaxis was performed in a modified Boyden chamber using CD13 at various concentrations. […] CD13 induced HMVEC migration from 500-2000 ng/ml (p<0.05). Data represent the mean of 3 individual experiments±SEM. Three high-power fields (hpf) (×400) were counted in each replicate well and results were expressed as cells per hpf. PBS served as negative control.

[4] = test system: C57Bl/6 mice; assay: Mouse model of inflammatory arthritis, intra-articular injection into knee joints; assay type: in vivo; conditions: 500 ng in 20 μl of PBS, 24 and 48 hours
Experimental: To use the mouse model of inflammatory arthritis, female C57Bl/6 mice (8-10 weeks old, Harlan Laboratories) are anesthetized with ketamine (80-120 mg/kg body weight) and xylazine (5-10 mg/kg body weight) intraperitoneally, and the knee circumference is determined by caliper measurements before intra-articular injection, as described (67). The anesthetized mice receive 20 μl/knee joint of PBS and recombinant mouse CD13 (500 ng in 20 μl of PBS). Circumference measurements are obtained in a blinded manner. Mice are euthanized after 24 and 48 hours of the intraarticular injection. Mouse knees are measured before euthanasia. Hematoxylin and eosin (H&E) staining of the mouse knee cryosections is performed to determine the inflammatory response of CD13 (67). Immunofluorescence staining is also performed on cryosections using rat anti-mouse F4/80 antibody (GenTex) to detect MNs/macrophages. The number of F4/80-positive MNs/macrophages is calculated as the average number of cells in 3 fields (400X).

[5] = test system: normal human MN; assay: Normal human MN chemotaxis in modified Boyden chambers; assay type: cell-based; conditions: PBS negative control
Experimental: FIG. 14. To evaluate the contribution of CD13 to RA inflammation by recruiting MNs, normal human MN chemotaxis assays were performed in modified Boyden chambers. […] PBS served as negative control. n=number of experiments. The results are expressed as mean+SEM and *p<0.05 was considered significant. n=number of replicates.

[6] = test system: Human dermal microvascular endothelial cell (HMVEC); assay: HMVEC tube formation on growth factor-reduced Matrigel; assay type: cell-based; conditions: GFR Matrigel
Experimental: FIG. 11. Human dermal microvascular endothelial cell (HMVEC) tube formation was assessed on growth factor-reduced Matrigel (GFR, BD Biosciences) with CD13. […] Arrows indicate the number of tubes formed in each group. n=number of replicates in each group. The number of tubes formed was quantitated by an observer blinded to the experimental groups.
HMVEC Matrigel tube formation assay. After finding that CD13 is chemotactic for HMVECs, the role of CD13 in RA is examined by performing HMVEC capillary morphogenesis assay on Matrigel tube with sham- or CD13-depleted RA SFs. Growth factor-reduced Matrigel (GFR, BD Biosciences) is used to perform this assay (56-58). CD13- or sham-depleted RA SFs are used as test groups (58). The chambers are incubated for 16 to 18 hours at 37° C. in a 5% CO2 humidified atmosphere. Cells are fixed and stained with Diff-Quik. The number of tubes formed is quantitated by an observer blinded to the experimental groups. bFGF (30 nM) and phosphate buffered saline (PBS) serve as positive and negative controls, respectively.

B1: CD13: recombinant Aminopeptidase N/CD13 used as stimulus; recombinant mouse CD13 planned for knee injection (protein, UniProt P15144 2-967, looked up)
Aminopeptidase N: AKGFYISKSLGILGILLGVAAVCTIIALSVVYSQEKNKNANSSPVASTTPSASATTNPASATTLDQSKAWNRYRLPNTLKPDSYRVTLRPYLTPNDRGLYVFKGSSTVRFTCKEATDVIIIHSKKLNYTLSQGHRVVLRGVGGSQPPDIDKTELVEPTEYLVVHLKGSLVKDSQYEMDSEFEGELADDLAGFYRSEYMEGNVRKVVATTQMQAADARKSFPCFDEPAMKAEFNITLIHPKDLTALSNMLPKGPSTPLPEDPNWNVTEFHTTPKMSTYLLAFIVSEFDYVEKQASNGVLIRIWARPSAIAAGHGDYALNVTGPILNFFAGHYDTPYPLPKSDQIGLPDFNAGAMENWGLVTYRENSLLFDPLSSSSSNKERVVTVIAHELAHQWFGNLVTIEWWNDLWLNEGFASYVEYLGADYAEPTWNLKDLMVLNDVYRVMAVDALASSHPLSTPASEINTPAQISELFDAISYSKGASVLRMLSSFLSEDVFKQGLASYLHTFAYQNTIYLNLWDHLQEAVNNRSIQLPTTVRDIMNRWTLQMGFPVITVDTSTGTLSQEHFLLDPDSNVTRPSEFNYVWIVPITSIRDGRQQQDYWLIDVRAQNDLFSTSGNEWVLLNLNVTGYYRVNYDEENWRKIQTQLQRDHSAIPVINRAQIINDAFNLASAHKVPVTLALNNTLFLIEERQYMPWEAALSSLSYFKLMFDRSEVYGPMKNYLKKQVTPLFIHFRNNTNNWREIPENLMDQYSEVNAISTACSNGVPECEEMVSGLFKQWMENPNNNPIHPNLRSTVYCNAIAQGGEEEWDFAWEQFRNATLVNEADKLRAALACSKELWILNRYLSYTLNPDLIRKQDATSTIISITNNVIGQGLVWDFVQSNWKKLFNDYGGGSFSFSNLIQAVTRRFSTEYELQQLEQFKKDNEETGFGSGTRALEQALEKTKANIKWVKENKEVVLQWFTENSK
hemoglobin (Hb) in Matrigel plugs compared to PBS [1]: more than a four-fold increase in Hb | effect of additional rhCD13 on RA FLS proliferation and migration [2]: did not consistently affect the RA FLS | concentrations at which HMVEC migration was induced [3]: 500 to 2000 ng/mL | increase in mouse knee circumference compared to PBS [4]: 2-3 fold | MN migration [5]: concentration-dependent increase in MN migration | EC tubes formed compared to PBS [6]: almost two-fold more numerous
